Consider 1 molecule from EP4491230A1 (iOmx Therapeutics AG, dated 2025).

The target in the assay is recombinant LILRA1 ECD (human, UniProt O75019 17-461). The assay can be described thus: BLI, IgG on AHC sensor, ECD as analyte.
Sequence of recombinant LILRA1 ECD (O75019 17-461 limits assumed): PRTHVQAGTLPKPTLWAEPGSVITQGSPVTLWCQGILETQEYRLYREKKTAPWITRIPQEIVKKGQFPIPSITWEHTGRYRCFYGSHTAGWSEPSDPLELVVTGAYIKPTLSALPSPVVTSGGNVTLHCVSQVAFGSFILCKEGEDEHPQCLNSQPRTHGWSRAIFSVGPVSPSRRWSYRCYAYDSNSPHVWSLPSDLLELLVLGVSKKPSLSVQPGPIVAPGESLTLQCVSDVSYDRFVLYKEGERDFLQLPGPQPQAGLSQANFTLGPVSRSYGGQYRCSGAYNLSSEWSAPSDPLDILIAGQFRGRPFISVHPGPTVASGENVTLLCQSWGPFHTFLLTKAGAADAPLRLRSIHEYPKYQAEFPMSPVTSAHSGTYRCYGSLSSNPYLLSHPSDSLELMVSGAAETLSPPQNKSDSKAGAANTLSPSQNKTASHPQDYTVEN

B1: A-046 (antibody, V domains shown)
VH: QVQLVQSGAEVKKPGSSVKVSCKASGGSFQSYAINWVRQAPGQGLEWMGGIIPGFSTANYAQKFQGRVTITADESTSTAYMELSSLRSEDTAVYYCAKDLGTYSSGWPYYYGMDVWGQGTTVTVSS
VL: SYELTQPPSVSVSPGQTASITCSGDKLGDKYASWYQQKPGQSPVLVIYQDSKRPSGIPERFSGSNSGNTATLTISGTQAEDEADYYCQLTHLTIYVFGGGTKLTVL
notes: HC of A-015 and LC of A-036; Tested as IgG
For B1, the binding result is on record as “no binding (tested: 900 nM of LILRA1 ECD)”.
